In the assay the target is peptide derived from subunit 5 of the pertussis toxin (PTX) (…) (Bordetella pertussis).

The record followed here is paper PMC12724015.

“Bordetella pertussis DsbA (BperDsbA), mature, oxidized (from UniProt Q7W0K2 28-209) (enzyme)”: the fraction of reduced BperDsbA (AMS alkylation, SDS-PAGE, densitometry) after 5, 10 and 30 s of 50 uM oxidized BperDsbA with 50 uM PTX peptide was 90%.
